Source: US20230071321A1 (VIB VZW, published 2023)
Like-named read-outs stand apart in the source and are kept apart here.

Tests used:
[1] = target: T1, hCXCR4Rho1D4 (full-length human CXCR4 receptor with C-terminal Rho1D4 tag) (human, UniProt P61072 6-352 (Pan troglodytes entry)); test: cell-based or functional assay
[2] = target: T1, hCXCR4Rho1D4 (full-length human CXCR4 …); test: control Nanobody co-expressed with hCXCR4Rho1D4 in P. pastoris; receptor level read by anti-Rho1D4 immunoblot
From the text: Equal amounts of total membrane protein (determined by a BCA assay) of induced P. pastoris GS115 clones, expressing only the human CXCR4 receptor, or in combination with a anti-hCXCR4 Nanobody (NbCA4142), or in combination with the negative control Nanobody (NbCA4910), were run on a 12% SDS-PAGE gel and blotted on a nitrocellulose membrane. The blot was developed with a primary mouse anti-Rho1D4 monoclonal antibody and a secondary Dylight (800 nm) goat anti-mouse IgG on an LI-COR odyssey system. For the hCXCR4-specific Nb co-expressing clone we detect more of the anti-Rho1D4 immunoreactive membrane protein band compared to the GS115hCXCR4 clone without Nb co-expression. […] Exact quantification has been calculated by the Odyssey software by measuring relative fluorescent signals (Table 4). It can, thus, be concluded that the increase in receptor expression can be attributed to the Nanobody-specific interaction with the receptor.
Protein samples were analyzed by SDS-poly-acrylamide gel electrophoresis, according to the Laemmli (Laemmli et al., 1970, Nature, 227:680) or the Tricine method (Schagger et al., 2006, Nat. Protoc. 1:16-22). Before loading on gel, the samples were mixed with 5×Laemmli (60 mM Tris-HCl pH 6,8; 2% SDS, 10% glycerol, 5% β-ME; 0.01% bromophenol blue) and heated for 10 minutes at 95° C. (only the ECM samples, not the membrane protein preparations). […]

[3] = target: T1, hCXCR4Rho1D4 (full-length human CXCR4 …); test: cell-based or functional assay; remark: listed apart in the source

T1 sequence (P61072 other isoform, or with tags, fused parts or gaps limits assumed): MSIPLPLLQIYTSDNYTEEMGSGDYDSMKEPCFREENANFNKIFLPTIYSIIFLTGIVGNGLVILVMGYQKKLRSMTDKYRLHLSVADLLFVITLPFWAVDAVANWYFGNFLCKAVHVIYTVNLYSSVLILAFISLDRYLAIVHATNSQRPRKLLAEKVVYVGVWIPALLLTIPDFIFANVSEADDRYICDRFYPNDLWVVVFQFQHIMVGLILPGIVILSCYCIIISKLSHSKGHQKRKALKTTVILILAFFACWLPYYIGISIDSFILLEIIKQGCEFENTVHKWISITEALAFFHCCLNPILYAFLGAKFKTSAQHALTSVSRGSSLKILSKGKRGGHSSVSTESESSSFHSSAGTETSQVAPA

B1: Nanobody CA4140 (VHH)
VHH: QVQLQESGGGLVQPGGSLRLSCAASGSIFSINAMGWYRQAPGKQRELVAAITSGGSTNYADSVKGRFTISRDNAENTVYLQMNNLKPEDTAVYSCNAEGTSGSSRYRRRYEYWGKGTQVTVSS
- Factor improvement (relative hCXCR4 expression, anti-Rho1D4 immunoblot fluorescence) [1]: 2.8 fold

B2: Nanobody CA4143 (VHH)
VHH: QVQLQESGGGLVQPGGSLRLSCAASGFTFSSYAMSWVRQAPGKGLEWVSTINSGGRSANYADSVKGRLTISRDNAKNTLHLQMNSLKPEDTALYYCARPRSVSRNYVPLGYDYLGQGTQVTVSS
- Factor improvement (relative hCXCR4 expression, anti-Rho1D4 immunoblot fluorescence) [1]: 3 fold

B3: Nanobody CA4910 (VHH)
VHH: QVQLVESGGGLVQPGGSLRLSCAASGSFRSIVSMAWYRQAPGKQRELVASSNSGGSTNYADSVKGRFTISRDNAKNTVYLQMNSLKPEDTAVYWCNVQNRLPGFDAFSGRSIAETYWGQGTQVTVSS
notes: It was co-expressed in P. pastoris as a control; also called NbCA4910; Nb4910
- binding result [2]: no binding
- Factor improvement (relative hCXCR4 expression, anti-Rho1D4 immunoblot fluorescence), clone 1 [3]: 0.4 fold
- Factor improvement (relative hCXCR4 expression, anti-Rho1D4 immunoblot fluorescence), clone 2 [3]: 1.1 fold
- Factor improvement (relative hCXCR4 expression, anti-Rho1D4 immunoblot fluorescence), clone 3 [3]: 1.2 fold

B4: Nanobody CA4500 (VHH)
VHH: QVQLQESGGGLVQAGGSLRLSCAASGSTSGIIAMGWYRQAPGKQRELVARISSGSSTNYADSVKGRFTVSRDNAKNTVYLQMNSLKPEDTAVYYCNAVRRGYRNDYNSWGQGTQVTVSS
- Factor improvement (relative hCXCR4 expression, anti-Rho1D4 immunoblot fluorescence) [1]: 1.3 fold

B5: Nanobody CA4142 (VHH)
VHH: QVQLQESGGGLVRTGGSLRLSCAGSGSFFSINPMGWYRQAPGQQRELVATITGSGSTNYADSVKGRFTISRDNAKNTLYLQMNSLKPEDTAVYYCNAGYFDRIGRRYDRWGQGTQVTVSS
- Factor improvement (relative hCXCR4 expression, anti-Rho1D4 immunoblot fluorescence) [3]: 1.9 fold
- Factor improvement (relative hCXCR4 expression, anti-Rho1D4 immunoblot fluorescence) [1]: 2.6 fold
